Here are results for one substance from patent US20250346676A1.

One assay concerns the target FcγRIIaH131 (human) (UniProt P12318). Briefly: TR-FRET competition with labeled competitor antibody on cells bearing the receptor.
A further assay addresses FcγRIIb (UniProt P31994). Described as above.
Another assay deals with FcγRIIIaV158 (UniProt P08637). The description is as above.
Assay [1] concerns the target human recombinant CD64 (R&D Systems) (human) (UniProt P12314). Briefly: SPR (Biacore T200); construct captured on Protein A, soluble CD64 as analyte.

Chain of human recombinant CD64 (R&D Systems) (human) (P12314 16-288 limits assumed): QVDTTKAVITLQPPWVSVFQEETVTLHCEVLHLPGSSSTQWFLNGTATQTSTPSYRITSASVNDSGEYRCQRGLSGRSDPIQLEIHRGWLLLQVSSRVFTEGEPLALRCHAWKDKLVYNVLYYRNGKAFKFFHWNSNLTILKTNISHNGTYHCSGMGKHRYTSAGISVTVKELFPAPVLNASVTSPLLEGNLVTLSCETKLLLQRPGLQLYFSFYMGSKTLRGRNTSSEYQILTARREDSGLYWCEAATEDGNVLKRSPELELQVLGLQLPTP
Chain of FcγRIIIaV158 (P08637 17-254 F176V limits assumed): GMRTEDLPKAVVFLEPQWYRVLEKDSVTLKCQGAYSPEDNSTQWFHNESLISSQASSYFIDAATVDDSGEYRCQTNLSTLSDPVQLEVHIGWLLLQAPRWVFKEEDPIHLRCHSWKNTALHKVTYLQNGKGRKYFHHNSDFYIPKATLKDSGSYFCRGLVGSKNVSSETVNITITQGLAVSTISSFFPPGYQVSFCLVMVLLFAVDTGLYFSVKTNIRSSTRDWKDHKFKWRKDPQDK
Chain of FcγRIIaH131 (human) (P12318 34-317): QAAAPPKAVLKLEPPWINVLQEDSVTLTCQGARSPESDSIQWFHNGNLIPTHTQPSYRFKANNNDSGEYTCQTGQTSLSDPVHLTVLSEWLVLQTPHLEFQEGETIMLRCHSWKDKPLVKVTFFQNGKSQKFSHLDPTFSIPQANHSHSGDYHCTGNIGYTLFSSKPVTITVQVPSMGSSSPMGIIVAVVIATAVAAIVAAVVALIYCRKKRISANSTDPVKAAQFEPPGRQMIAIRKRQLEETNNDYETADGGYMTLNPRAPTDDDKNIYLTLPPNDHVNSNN
Chain of FcγRIIb (P31994 43-310 limits assumed): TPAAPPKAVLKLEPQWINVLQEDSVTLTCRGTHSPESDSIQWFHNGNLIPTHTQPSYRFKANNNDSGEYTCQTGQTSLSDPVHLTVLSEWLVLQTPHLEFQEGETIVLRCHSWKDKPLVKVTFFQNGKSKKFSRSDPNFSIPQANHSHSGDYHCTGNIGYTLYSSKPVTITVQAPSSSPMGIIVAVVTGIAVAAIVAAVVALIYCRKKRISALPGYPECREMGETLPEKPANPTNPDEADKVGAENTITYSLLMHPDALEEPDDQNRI

“anti-CD20 monoclonal antibody (CDRs from Gazyva (obinutuzumab))”: the IC50 is 1270 nM in the assay with FcγRIIaH131 (human), 3290 nM in the assay with FcγRIIb and 428 nM with FcγRIIIaV158. Moreover, the CD64 Valency by SPR in assay [1] worked out at 1.5.
